Key:
Assay in all cases: cell-based or functional assay
[1] = biological target: CSF-1R on cynomolgous monocytes (native receptor of CD14-enriched peripheral blood monocytes) (cynomolgous)
[2] = biological target: human mutant CSF-1R L301S Y969F, full-length, on cells (human) (UniProt P07333)
[3] = biological target: human wildtype CSF-1R (wt CSF-1R), full-length, on cells (human) (UniProt P07333)

IC50 CSF-1R Phosphorylation [3]	% inhibition at 20 µg/ml (mutant CSF-1R cells) [2]	Substance	% inhibition (of survival) = (100% - % survival) (CellTiterGlo; cynomolgous monocytes with 150 ng/ml huCSF-1; 5 µg/ml antibody) [1]	% survival (CellTiterGlo; cynomolgous monocytes with 150 ng/ml huCSF-1; 5 µg/ml antibody) [1]	Mutant CSF-1R IC30 [µg/ml] (cell viability, 3D culture, CellTiterGlo) [2]	Mutant CSF-1R IC50 [µg/ml] (cell viability, 3D culture, CellTiterGlo) [2]	wtCSF-1R IC30 [µg/ml] (cell viability, 3D culture, CellTiterGlo) [3]	wtCSF-1R IC50 [µg/ml] (cell viability, 3D culture, CellTiterGlo) [3]
1010 ng/mL		Anti CSF-1R SC 2-4A5 (Santa Cruz Biotechnology, US) (antibody)	69%	31%	2.56 µg/mL	10 µg/mL	16.6 µg/mL	10 µg/mL
	0%	goat polyclonal anti-CSF-1R antibody ab10676 (abcam)			> 20 µg/mL		14.2 µg/mL	

From patent US20150274831A1
